Assay results published in article PMC5896956, “Small molecule induced oligomerization, clustering and clathrin-independent endocytosis of the dopamine transporter” (eLife, 2018).

B1: HA-DAT (endogenous, HA-DAT knock-in mouse) (natural protein, UniProt Q61327 1-619, looked up)
chain: MSKSKCSVGPMSSVVAPAKEPNAVGPREVELILVKEQNGVQLTNSTLINPPQTPVEVQERETWSKKIDFLLSVIGFAVDLANVWRFPYLCYKNGGGAFLVPYLLFMVIAGMPLFYMELALGQFNREGAAGVWKICPVLKGVGFTVILISFYVGFFYNVIIAWALHYFFSSFTMDLPWIHCNNTWNSPNCSDAHSSNSSDGLGLNDTFGTTPAAEYFERGVLHLHQSRGIDDLGPPRWQLTACLVLVIVLLYFSLWKGVKTSGKVVWITATMPYVVLTALLLRGVTLPGAMDGIRAYLSVDFYRLCEASVWIDAATQVCFSLGVGFGVLIAFSSYNKFTNNCYRDAIITTSINSLTSFSSGFVVFSFLGYMAQKHNVPIRDVATDGPGLIFIIYPEAIATLPLSSAWAAVFFLMLLTLGIDSAMGGMESVITGLVDEFQLLHRHRELFTLGIVLATFLLSLFCVTNGGIYVFTLLDHFAAGTSILFGVLIEAIGVAWFYGVQQFSDDIKQMTGQRPNLYWRLCWKLVSPCFLLYVVVVSIVTFRPPHYGAYIFPDWANALGWIIATSSMAMVPIYATYKFCSLPGSFREKLAYAITPEKDRQLVDRGEVRQFTLRHWLLV
notes: it is reached by the HA11 antibody from outside the cell; Detected with the rat DAT antibody; oligomer species at 190 kDa; also called mouse DAT; source: endogenous (knock-in), striatal synaptosomes of adult HA-DAT mice
B2: DAT fused to yellow fluorescent protein (YFP) (YFP-DAT) (natural protein, human, UniProt Q01959 1-620, looked up)
chain: MSKSKCSVGLMSSVVAPAKEPNAVGPKEVELILVKEQNGVQLTSSTLTNPRQSPVEAQDRETWGKKIDFLLSVIGFAVDLANVWRFPYLCYKNGGGAFLVPYLLFMVIAGMPLFYMELALGQFNREGAAGVWKICPILKGVGFTVILISLYVGFFYNVIIAWALHYLFSSFTTELPWIHCNNSWNSPNCSDAHPGDSSGDSSGLNDTFGTTPAAEYFERGVLHLHQSHGIDDLGPPRWQLTACLVLVIVLLYFSLWKGVKTSGKVVWITATMPYVVLTALLLRGVTLPGAIDGIRAYLSVDFYRLCEASVWIDAATQVCFSLGVGFGVLIAFSSYNKFTNNCYRDAIVTTSINSLTSFSSGFVVFSFLGYMAQKHSVPIGDVAKDGPGLIFIIYPEAIATLPLSSAWAVVFFIMLLTLGIDSAMGGMESVITGLIDEFQLLHRHRELFTLFIVLATFLLSLFCVTNGGIYVFTLLDHFAAGTSILFGVLIEAIGVAWFYGVGQFSDDIQQMTGQRPSLYWRLCWKLVSPCFLLFVVVVSIVTFRPPHYGAYIFPDWANALGWVIATSSMAMVPIYAAYKFCSLPGSFREKLAYAIAPEKDRELVDRGEVRQFTLRHWLKV
notes: Dopamine transporter (DAT), human; In the FRET experiment one copy carried CFP (CFP-DAT) and the other YFP (YFP-DAT); also called CFP-DAT (the copy with CFP in place of YFP, donor in the FRET experiment); source: PAE cells, stably expressed, in lysate; for FRET in living PAE cells stably co-expressing CFP-DAT and YFP-DAT

How the values were obtained:
[1] = target: the molecule itself; assay: SDS-resistant oligomers on SDS-PAGE and western blot; striatal synaptosomes of adult HA-DAT mice in KRH/G, vehicle (DMSO) or 10–20 µM AIM-100 for 2 hr at 37°C; pelleted synaptosomes denatured in Laemmli buffer, SDS-PAGE, blot with DAT antibody
[2] = target: the molecule itself; assay: SDS-resistant oligomers on SDS-PAGE and western blot; PAE cells stably expressing the tagged transporter, vehicle (DMSO) or 20 µM AIM-100 for 2 hr at 37°C (also after cocaine, dopamine, amphetamine, modafinil, KRCA-0008, CHC siRNA, at 4°C or 20°C); lysis in TGH buffer, Laemmli buffer (2% SDS, 5% β-mercaptoethanol) 5 min at 95°C, 7.5% SDS-PAGE, blot with GFP antibody; oligomers (O) against monomers (M)

Row | Protein | stoichiometry N [1] | stoichiometry N [2]
1 | B1 | ~3 | 
2 | B2 |  | ~3
